The source of these data is the Human Domainome abundance scans (Beltran et al. 2025).

B1: Chromodomain-helicase-DNA-binding protein 5, residues 338 to 390; numbered along this chain, Q8TDI0 (parent)
chain: YETDHQDYCEVCQQGGEIILCDTCPRAYHLVCLDPELEKAPEGKWSCPHCEKE

± gives the uncertainty stated by the source.

The data set covers variants of B1. The data set can be described thus: abundance fitness (aPCA) (normalised: wild type 0, dead -1); higher = more abundant; growth selection in yeast, the domain comes from the species named. To be noted: Homo sapiens.
Regarding C21E, the abundance fitness was -1.08 ± 0.28.

For the variant C21P, the abundance fitness is -0.907 ± 0.2.

In the case of C21W, the abundance fitness was -1.08 ± 0.23.

In the case of C21K, the abundance fitness is -0.805 ± 0.2.

For the variant C47T, the abundance fitness was -0.43 ± 0.14.

For C47G, the abundance fitness was -0.797 ± 0.14.

For the variant C47V, the abundance fitness was -0.773 ± 0.19.

On to C47L, for which the abundance fitness was -0.855 ± 0.12.

Consider C47D, for which the abundance fitness was 0.064 ± 0.21.

G43W: the abundance fitness was -0.223 ± 0.14.

As to G43I, the abundance fitness was -0.169 ± 0.16.

As for G43T, the abundance fitness was 0.235 ± 0.13.

G15L: the abundance fitness is -0.209 ± 0.14.

As to G15K, the abundance fitness amounted to 0.155 ± 0.16.

Regarding G15M, the abundance fitness is 0.143 ± 0.2.

For the variant C9I, the abundance fitness is -0.774 ± 0.3.

As for C9S, the abundance fitness was -0.809 ± 0.17.

In the case of E42S, the abundance fitness was -0.241 ± 0.11.

With E42I, the abundance fitness is -0.019 ± 0.22.

Regarding E42R, the abundance fitness is -0.085 ± 0.11.

As for E42W, the abundance fitness was -0.318 ± 0.15.

As for P41E, the abundance fitness was -0.114 ± 0.13.

P41H: the abundance fitness is 0.056 ± 0.17.

Consider P41G, for which the abundance fitness was -0.106 ± 0.12.

Consider P41L, for which the abundance fitness is -0.135 ± 0.1.

Take P41Y: the abundance fitness is -0.443 ± 0.27.

P41C: the abundance fitness was -0.379 ± 0.17.

With P48S, the abundance fitness was found to be 0.016 ± 0.12.

Take P48W: the abundance fitness was found to be 0.01 ± 0.14.

As for P48N, the abundance fitness came to 0.014 ± 0.24.

Turning to P48I, the abundance fitness came to 0.025 ± 0.19.

In the case of P48M, the abundance fitness came out at 0.107 ± 0.14.

Consider K52V, for which the abundance fitness is -0.324 ± 0.12.

Consider K52P, for which the abundance fitness was -0.5 ± 0.2.

Regarding V31M, the abundance fitness is -0.383 ± 0.17.

On to V31K, for which the abundance fitness is -0.314 ± 0.17.

As for V31T, the abundance fitness was -0.023 ± 0.14.

With V31Y, the abundance fitness was -0.368 ± 0.2.

For K39E, the abundance fitness was -0.096 ± 0.13.

As to K39S, the abundance fitness is -0.251 ± 0.15.

For E36P, the abundance fitness was found to be 0.087 ± 0.13.

Consider E36F, for which the abundance fitness was -0.237 ± 0.19.

On to E36Y, for which the abundance fitness was -0.35 ± 0.15.

As to E51G, the abundance fitness is -0.095 ± 0.1.

As for E51P, the abundance fitness is -0.367 ± 0.15.

Regarding E51A, the abundance fitness is -0.12 ± 0.093.

In the case of E51C, the abundance fitness was -0.123 ± 0.19.

As to E51R, the abundance fitness was -0.396 ± 0.12.

For L20N, the abundance fitness was determined as 0.091 ± 0.16.

As for L20M, the abundance fitness turned out to be 0.371 ± 0.17.

With L20H, the abundance fitness worked out at 0.224 ± 0.15.

Consider L20K, for which the abundance fitness stood at 0.099 ± 0.14.

As to L20A, the abundance fitness amounted to 0.139 ± 0.12.

On to L33S, for which the abundance fitness worked out at 0.176 ± 0.12.

With C12Q, the abundance fitness is -0.79 ± 0.13.

For the variant C12N, the abundance fitness was -0.318 ± 0.2.

For the variant H49G, the abundance fitness came out at 0.071 ± 0.16.

Regarding H49V, the abundance fitness was -0.45 ± 0.18.

Regarding H49E, the abundance fitness was -0.225 ± 0.26.

In the case of H49D, the abundance fitness amounted to 0.422 ± 0.32.

In the case of E53Y, the abundance fitness was -0.219 ± 0.43.

Take E53W: the abundance fitness is -0.526 ± 0.23.

With Q14M, the abundance fitness worked out at 0.084 ± 0.16.

As to Q14R, the abundance fitness is -0.019 ± 0.099.

As for Q14C, the abundance fitness is -0.378 ± 0.12.

Consider D7C, for which the abundance fitness was -0.669 ± 0.24.

In the case of D7Y, the abundance fitness is -0.676 ± 0.39.

For the variant D7L, the abundance fitness was -0.527 ± 0.21.

For the variant C24R, the abundance fitness was -0.804 ± 0.12.

In the case of W45V, the abundance fitness stood at 0 ± 0.1.

As for W45I, the abundance fitness was -0.146 ± 0.18.

As to W45H, the abundance fitness came to 0.283 ± 0.2.

As to W45Y, the abundance fitness was -0.293 ± 0.17.

With W45G, the abundance fitness was -0.091 ± 0.096.

With W45P, the abundance fitness is -0.086 ± 0.18.

For Y28I, the abundance fitness was -0.293 ± 0.2.

With Y28N, the abundance fitness is -0.193 ± 0.28.

As for Y28W, the abundance fitness is -0.098 ± 0.12.

Y28D: the abundance fitness was -0.713 ± 0.28.

Q13M: the abundance fitness is 0.002 ± 0.13.

Regarding Q13Y, the abundance fitness is -0.198 ± 0.16.

For the variant P35R, the abundance fitness is -0.096 ± 0.12.

For P35G, the abundance fitness was found to be 0.181 ± 0.11.

As to Y8W, the abundance fitness was -0.111 ± 0.14.

Regarding Y8L, the abundance fitness was determined as 0.06 ± 0.1.

For Y8H, the abundance fitness came to 0.349 ± 0.17.

For the variant Y8F, the abundance fitness is -0.204 ± 0.25.

As for T23L, the abundance fitness is -0.07 ± 0.12.

Turning to T23I, the abundance fitness is -0.135 ± 0.2.

On to T23W, for which the abundance fitness is -0.443 ± 0.17.

As for T23Q, the abundance fitness is -0.15 ± 0.2.

As to A40R, the abundance fitness is -0.072 ± 0.11.

As for A40G, the abundance fitness was -0.168 ± 0.11.

Turning to A40E, the abundance fitness was -0.274 ± 0.17.

On to A40H, for which the abundance fitness is -0.094 ± 0.22.

On to A40W, for which the abundance fitness was -0.404 ± 0.16.

A40P: the abundance fitness is -0.023 ± 0.15.

As for A40Q, the abundance fitness was -0.273 ± 0.24.

For the variant H29D, the abundance fitness is -0.451 ± 0.15.

On to H29V, for which the abundance fitness was -1.1 ± 0.15.

Consider H29M, for which the abundance fitness is -0.547 ± 0.17.

Take H29C: the abundance fitness stood at 0.053 ± 0.16.

Regarding R26K, the abundance fitness was found to be 0.094 ± 0.17.

As for R26I, the abundance fitness was -0.059 ± 0.19.

Regarding G16M, the abundance fitness is 0.255 ± 0.14.

Turning to G16C, the abundance fitness is -0.336 ± 0.27.

Consider G16S, for which the abundance fitness turned out to be 0.114 ± 0.13.

For the variant G16A, the abundance fitness was -0.037 ± 0.11.

Take G16H: the abundance fitness was 0.435 ± 0.22.

Regarding D34Y, the abundance fitness is -0.269 ± 0.25.

On to E17S, for which the abundance fitness was -0.354 ± 0.13.

Regarding E17D, the abundance fitness is -0.182 ± 0.16.

For the variant D4W, the abundance fitness is -0.014 ± 0.11.

Consider D4F, for which the abundance fitness is 0.04 ± 0.16.

For the variant L37S, the abundance fitness turned out to be 0.211 ± 0.11.

As for Q6W, the abundance fitness is -0.421 ± 0.12.

In the case of Q6P, the abundance fitness came out at 0.25 ± 0.21.

For Q6E, the abundance fitness is -0.186 ± 0.22.

With Q6Y, the abundance fitness was -0.422 ± 0.2.

As to Q6R, the abundance fitness was -0.183 ± 0.14.

In the case of Q6A, the abundance fitness came to 0.193 ± 0.29.

On to E10W, for which the abundance fitness came out at 0.234 ± 0.14.

Regarding E10H, the abundance fitness was -0.394 ± 0.2.

In the case of E10Q, the abundance fitness was 0.024 ± 0.13.

As for E10G, the abundance fitness was found to be 0.015 ± 0.11.

Take E10A: the abundance fitness is -0.064 ± 0.1.

As to E38N, the abundance fitness was -0.271 ± 0.26.

As to E38R, the abundance fitness was -0.147 ± 0.1.

As to E38S, the abundance fitness is -0.225 ± 0.14.

For E38V, the abundance fitness was -0.157 ± 0.12.

On to E38T, for which the abundance fitness is -0.252 ± 0.17.

Regarding P25L, the abundance fitness is -0.157 ± 0.13.

Consider D22F, for which the abundance fitness is -0.597 ± 0.21.

With D22H, the abundance fitness was -0.078 ± 0.24.

Consider T3F, for which the abundance fitness was 0.275 ± 0.19.

For the variant T3V, the abundance fitness was determined as 0.027 ± 0.12.

Turning to T3E, the abundance fitness stood at 0.268 ± 0.18.

As for T3A, the abundance fitness was found to be 0.098 ± 0.11.

For T3G, the abundance fitness worked out at 0.342 ± 0.091.

Take C50L: the abundance fitness was -0.575 ± 0.13.

Take A27E: the abundance fitness was -0.55 ± 0.15.

Consider A27T, for which the abundance fitness was 0.074 ± 0.14.

As for A27M, the abundance fitness is -0.29 ± 0.17.

With I19P, the abundance fitness was -1.07 ± 0.21.

On to I19F, for which the abundance fitness was 0.051 ± 0.22.

Consider I18E, for which the abundance fitness is -0.454 ± 0.19.

As to H5E, the abundance fitness was determined as 0.024 ± 0.13.

For the variant H5T, the abundance fitness was found to be 0.116 ± 0.12.

Turning to H5P, the abundance fitness came to 0.124 ± 0.13.

On to H5L, for which the abundance fitness amounted to 0.375 ± 0.11.

For H5A, the abundance fitness turned out to be 0.488 ± 0.12.

Turning to C32N, the abundance fitness is -0.579 ± 0.29.

C32Q: the abundance fitness was -0.982 ± 0.23.

As to C32H, the abundance fitness is -0.765 ± 0.32.

As to K44M, the abundance fitness is 0.116 ± 0.15.

In the case of K44Y, the abundance fitness is -0.599 ± 0.21.

Regarding K44E, the abundance fitness amounted to 0.031 ± 0.12.

For the variant K44Q, the abundance fitness was -0.053 ± 0.13.

In the case of K44G, the abundance fitness is 0.065 ± 0.093.

Regarding S46V, the abundance fitness was determined as 0.011 ± 0.1.

For the variant L30H, the abundance fitness was -0.194 ± 0.26.

On to L30Y, for which the abundance fitness was 0.193 ± 0.28.

For the variant L30T, the abundance fitness was -0.222 ± 0.14.

For the variant L30I, the abundance fitness was -0.703 ± 0.33.

As for L30S, the abundance fitness is -0.06 ± 0.11.

Regarding L30N, the abundance fitness is -0.047 ± 0.19.

Take L30F: the abundance fitness is -0.063 ± 0.16.
